The test system of one experiment is OVCAR-3 cells. The experiment can be described thus: Bioactive compound library screen and STACK cell death analysis ± StcE. The class given is cell-based. Here is the method: Bioactive compound library screen. A library of 261 bioactive compounds (Selleck Chemicals) was stored at −80° C. The library was re-formatted from 96-well to 384-well format using a Versette automated liquid handler configured with a 96-channel pipetting head and diluted to 2 mM in DMSO. The day before the screen, 5×10^3 OVCAR-3^N cells/well were seeded into two 384-well plates in 45 μL of medium. The next day, the medium was removed and replaced with medium containing 20 nM Sytox Green and compounds from a freshly thawed library master stock plate (1 compound/well) were added to a final concentration of 500 nM. One plate was co-treated with vehicle (PBS) and the other with 50 nM StcE. Plates were imaged immediately and every 2 h thereafter for a total of 72 h using the Essen IncuCyte Zoom. Counts of Sytox Green and mKate^2 objects per mm^2 were obtained and the lethal fraction calculated as previously described^2. […] The Bliss Independence Model was used to compute expectant cell death of compound+ StcE treatment using normalized AUC (nAUC) values, and deviation from this expectation was used to infer modulation of cell death, as described previously^3.
Measuring cell death using STACK. Follow-up cell death experiments of OVCAR-3^N cells were performed using scalable time-lapse analysis of cell death kinetics (STACK) 2. […]

The target in a further experiment is mucin-1 (MUC1) (human) (UniProt P15941).
The target of experiment [1] is human epidermal growth factor receptor 2 (HER2) (human) (UniProt P04626).
In experiment [2] the target is Annexin A1 (ANXA1) (human) (UniProt P04083).
In the next experiment the target is CD29 (human) (UniProt P05556).
The next experiment deals with CD30 (human) (UniProt P28908).
In experiment [3] the target is CD43 (sialophorin) (human) (UniProt P16150).
Another experiment deals with CD46 (human) (UniProt P15529).
A further experiment concerns the target CD98 (human) (UniProt P08195).
The next experiment addresses CD236 (human) (UniProt P04921).
Experiment [4] addresses cell surface mucins on HeLa cells.

Sequence of CD236 (human) (P04921 whole entry): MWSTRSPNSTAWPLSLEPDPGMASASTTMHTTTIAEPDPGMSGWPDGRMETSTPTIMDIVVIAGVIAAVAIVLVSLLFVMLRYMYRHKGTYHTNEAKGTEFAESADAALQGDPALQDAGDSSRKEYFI
Sequence of CD98 (human) (P08195 103-630): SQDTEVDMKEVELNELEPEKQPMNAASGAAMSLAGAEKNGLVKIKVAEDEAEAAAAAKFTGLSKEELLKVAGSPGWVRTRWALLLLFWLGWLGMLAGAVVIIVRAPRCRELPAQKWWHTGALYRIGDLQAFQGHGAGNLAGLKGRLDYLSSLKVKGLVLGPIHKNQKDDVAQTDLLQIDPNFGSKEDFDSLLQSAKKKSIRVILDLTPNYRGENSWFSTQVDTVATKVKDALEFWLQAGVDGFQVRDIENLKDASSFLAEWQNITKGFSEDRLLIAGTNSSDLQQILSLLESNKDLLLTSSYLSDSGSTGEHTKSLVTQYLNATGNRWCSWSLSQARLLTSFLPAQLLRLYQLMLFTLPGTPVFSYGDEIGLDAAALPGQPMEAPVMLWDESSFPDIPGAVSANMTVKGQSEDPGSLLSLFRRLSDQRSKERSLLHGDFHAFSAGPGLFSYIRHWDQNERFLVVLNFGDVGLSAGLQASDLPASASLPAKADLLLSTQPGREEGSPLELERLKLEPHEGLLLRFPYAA
Sequence of CD29 (human) (P05556 21-798): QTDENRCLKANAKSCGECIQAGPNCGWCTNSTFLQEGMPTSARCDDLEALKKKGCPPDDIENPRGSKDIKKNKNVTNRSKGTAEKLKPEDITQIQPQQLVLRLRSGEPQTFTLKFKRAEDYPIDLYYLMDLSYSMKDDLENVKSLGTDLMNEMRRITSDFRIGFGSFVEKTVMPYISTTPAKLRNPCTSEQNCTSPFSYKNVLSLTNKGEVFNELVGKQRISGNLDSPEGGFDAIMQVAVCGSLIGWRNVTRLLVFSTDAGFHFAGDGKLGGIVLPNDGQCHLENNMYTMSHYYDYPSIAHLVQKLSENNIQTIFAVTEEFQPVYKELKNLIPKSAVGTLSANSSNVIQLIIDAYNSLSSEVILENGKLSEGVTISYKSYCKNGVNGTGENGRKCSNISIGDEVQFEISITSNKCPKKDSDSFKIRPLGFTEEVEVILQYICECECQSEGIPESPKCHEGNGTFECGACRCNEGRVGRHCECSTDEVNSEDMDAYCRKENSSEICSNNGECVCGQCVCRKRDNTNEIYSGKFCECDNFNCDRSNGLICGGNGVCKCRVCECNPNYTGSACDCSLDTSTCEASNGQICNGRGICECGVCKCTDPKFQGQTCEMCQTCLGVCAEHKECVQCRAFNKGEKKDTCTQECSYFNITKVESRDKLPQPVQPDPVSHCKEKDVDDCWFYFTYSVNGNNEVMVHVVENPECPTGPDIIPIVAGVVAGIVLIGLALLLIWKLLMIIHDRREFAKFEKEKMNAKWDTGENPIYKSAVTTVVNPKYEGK
Sequence of CD43 (sialophorin) (human) (P16150 20-400): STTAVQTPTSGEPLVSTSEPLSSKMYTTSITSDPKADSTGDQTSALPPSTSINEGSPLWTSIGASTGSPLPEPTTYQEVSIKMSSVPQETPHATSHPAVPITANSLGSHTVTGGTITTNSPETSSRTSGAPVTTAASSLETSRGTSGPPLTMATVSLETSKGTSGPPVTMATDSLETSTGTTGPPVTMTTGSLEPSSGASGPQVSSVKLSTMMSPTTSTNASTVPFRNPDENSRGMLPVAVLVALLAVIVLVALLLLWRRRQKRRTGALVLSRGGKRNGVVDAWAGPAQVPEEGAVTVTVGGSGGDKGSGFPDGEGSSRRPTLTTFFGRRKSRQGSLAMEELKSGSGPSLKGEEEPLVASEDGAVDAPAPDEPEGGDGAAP
Sequence of CD46 (human) (P15529 35-392): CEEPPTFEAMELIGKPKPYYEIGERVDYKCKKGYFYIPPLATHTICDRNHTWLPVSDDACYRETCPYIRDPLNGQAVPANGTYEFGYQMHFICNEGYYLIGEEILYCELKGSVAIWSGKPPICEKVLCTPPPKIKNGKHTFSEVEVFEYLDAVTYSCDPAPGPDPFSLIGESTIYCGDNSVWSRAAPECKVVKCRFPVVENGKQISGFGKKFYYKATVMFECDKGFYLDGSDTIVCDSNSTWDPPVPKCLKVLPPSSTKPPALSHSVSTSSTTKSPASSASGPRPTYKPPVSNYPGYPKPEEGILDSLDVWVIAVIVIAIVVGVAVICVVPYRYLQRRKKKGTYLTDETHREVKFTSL
Sequence of CD30 (human) (P28908 19-595): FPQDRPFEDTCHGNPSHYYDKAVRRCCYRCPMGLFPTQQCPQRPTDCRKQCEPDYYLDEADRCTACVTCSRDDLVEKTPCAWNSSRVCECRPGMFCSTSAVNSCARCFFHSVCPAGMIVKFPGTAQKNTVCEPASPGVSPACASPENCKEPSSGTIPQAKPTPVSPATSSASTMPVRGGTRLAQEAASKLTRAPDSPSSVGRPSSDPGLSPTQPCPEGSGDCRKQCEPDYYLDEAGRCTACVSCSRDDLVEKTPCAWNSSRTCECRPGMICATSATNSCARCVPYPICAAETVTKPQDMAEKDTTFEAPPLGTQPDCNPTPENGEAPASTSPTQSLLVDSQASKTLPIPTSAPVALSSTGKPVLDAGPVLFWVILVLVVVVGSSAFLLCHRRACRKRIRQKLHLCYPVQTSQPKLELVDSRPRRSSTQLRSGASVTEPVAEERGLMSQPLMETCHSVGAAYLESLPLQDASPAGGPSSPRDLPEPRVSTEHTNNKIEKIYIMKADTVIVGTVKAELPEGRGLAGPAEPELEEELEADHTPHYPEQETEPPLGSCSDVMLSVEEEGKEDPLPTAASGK
Sequence of Annexin A1 (ANXA1) (human) (P04083 2-346): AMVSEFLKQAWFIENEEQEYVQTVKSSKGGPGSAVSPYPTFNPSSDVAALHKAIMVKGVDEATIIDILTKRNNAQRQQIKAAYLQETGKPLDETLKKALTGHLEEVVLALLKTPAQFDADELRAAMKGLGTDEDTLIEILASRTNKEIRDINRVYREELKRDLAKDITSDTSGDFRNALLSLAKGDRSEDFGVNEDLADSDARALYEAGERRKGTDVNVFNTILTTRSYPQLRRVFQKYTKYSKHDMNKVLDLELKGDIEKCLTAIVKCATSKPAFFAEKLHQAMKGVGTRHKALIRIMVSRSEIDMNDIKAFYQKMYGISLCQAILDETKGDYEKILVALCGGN
Sequence of mucin-1 (MUC1) (human) (P15941 24-1255): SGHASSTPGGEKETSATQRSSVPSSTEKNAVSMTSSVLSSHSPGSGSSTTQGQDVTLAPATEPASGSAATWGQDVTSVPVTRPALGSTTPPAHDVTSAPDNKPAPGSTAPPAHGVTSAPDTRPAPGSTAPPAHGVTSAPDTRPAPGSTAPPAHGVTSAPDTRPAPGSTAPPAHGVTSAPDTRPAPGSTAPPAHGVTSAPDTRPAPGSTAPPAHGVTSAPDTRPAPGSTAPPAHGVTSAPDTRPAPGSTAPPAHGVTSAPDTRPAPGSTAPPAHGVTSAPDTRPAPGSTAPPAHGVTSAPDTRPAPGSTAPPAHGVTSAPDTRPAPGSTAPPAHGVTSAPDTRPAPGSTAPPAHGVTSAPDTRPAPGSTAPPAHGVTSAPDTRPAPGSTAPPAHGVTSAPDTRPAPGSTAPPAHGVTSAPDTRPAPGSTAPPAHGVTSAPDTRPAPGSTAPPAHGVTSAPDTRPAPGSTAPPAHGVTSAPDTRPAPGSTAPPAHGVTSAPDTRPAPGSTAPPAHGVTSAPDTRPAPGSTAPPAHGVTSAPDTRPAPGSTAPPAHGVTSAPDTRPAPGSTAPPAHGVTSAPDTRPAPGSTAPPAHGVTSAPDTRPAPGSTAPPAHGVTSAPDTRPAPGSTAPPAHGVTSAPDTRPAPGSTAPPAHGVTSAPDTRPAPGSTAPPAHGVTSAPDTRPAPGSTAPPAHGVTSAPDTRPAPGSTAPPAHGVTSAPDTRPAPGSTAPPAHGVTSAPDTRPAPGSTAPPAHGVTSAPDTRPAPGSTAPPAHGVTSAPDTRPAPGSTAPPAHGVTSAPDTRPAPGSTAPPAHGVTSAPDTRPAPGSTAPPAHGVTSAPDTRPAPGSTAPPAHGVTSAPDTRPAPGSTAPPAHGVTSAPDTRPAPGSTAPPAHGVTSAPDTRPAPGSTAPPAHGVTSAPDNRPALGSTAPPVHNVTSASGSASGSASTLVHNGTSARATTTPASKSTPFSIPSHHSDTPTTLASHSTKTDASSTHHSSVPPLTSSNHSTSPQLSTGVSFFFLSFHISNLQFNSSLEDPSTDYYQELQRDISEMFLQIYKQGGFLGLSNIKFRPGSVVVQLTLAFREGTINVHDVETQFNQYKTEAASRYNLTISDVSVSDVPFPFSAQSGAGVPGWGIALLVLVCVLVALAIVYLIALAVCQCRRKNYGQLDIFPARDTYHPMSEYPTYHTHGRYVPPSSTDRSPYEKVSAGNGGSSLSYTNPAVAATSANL

On to `COC(=O)c1ccc([C@@H]2c3[nH]c4ccccc4c3C[C@@H](C(=O)OC)N2C(=O)CCl)cc1` [RSL3], for which the “Enhancement of ferroptosis by StcE co-treatment” value in the experiment on OVCAR-3 cells (dose response ± 50 nM StcE, OVCAR-3) is “no enhancement of ferroptosis”.

On to `CCOC(=O)c1ccc(NC2CCCCC2)c(N)c1` [ferrostatin-1], for which the “Suppression of erastin2 + StcE induced ferroptosis” value in the experiment with OVCAR-3 cells (1 μM ferrostatin-1) was “fully suppressed”. For “Anti-MUC1/episialin antibody, clone 214D4 (EMD Millipore)”, the Maximum MFI observed in binding assay with mucin-1 (MUC1) (human) is 328 AU. Turning to “Isotype control antibody, clone MOPC-21 (BioLegend)”, the Maximum MFI observed in binding assay with K562^HER2 cell surface was 0.1 AU. Turning to “Mouse IgG1 anti-human CD340 (erbB2/HER-2) antibody, clone 24D2 (BioLegend)”, in experiment [1], the Maximum MFI observed in binding assay amounted to 311 AU.

Consider “anti-Annexin A1 antibody, clone 74/3 (BioLegend)”, for which the Maximum MFI observed in binding assay in experiment [2] amounted to 1.3 AU. With “anti-CD29 antibody, clone P5D2 (BioLegend)”, in the experiment with CD29 (human), the Maximum MFI observed in binding assay worked out at 23.7 AU.

For the compound “anti-CD30 antibody, clone BY88 (BioLegend)”, the Maximum MFI observed in binding assay with CD30 (human) was determined as 9.8 AU. Consider “anti-CD43 antibody, clone CD43-10G7 (BioLegend)”, for which the Maximum MFI observed in binding assay in experiment [3] was determined as 160 AU. Compound “anti-CD46 antibody, clone TRA-2-10 (BioLegend)” returned a Maximum MFI observed in binding assay with CD46 (human) of 64.9 AU.

Take “anti-CD98 antibody, clone MEM-108 (BioLegend)”: in the experiment with CD98 (human), the Maximum MFI observed in binding assay is 234 AU.

As for “anti-CD236 antibody, clone QA20A41 (BioLegend)”, the Maximum MFI observed in binding assay with CD236 (human) is 188 AU. Compound “ddStcE^W366A (ΔC, ΔINS and W366A), engineered StcE (from UniProt O82882 36-803) (enzyme)” yielded a Kd in [4] of 2 µM.

Broadly, the Kd is the concentration at which binding is half-saturated. A lower Kd goes with a tighter complex.

Values taken from US20250276081A1, “Mucin-Active Proteases and Methods of Use” (priority 2022, published 2025).
